“And” between values parts separate entries of the source, which are not always exact repeats. Equal entries are not always repeated.
T1: epitope region-containing peptide fragment (AFPPEVIGPLFFFPLLYMIFQLGEG-biotin) (C-terminal biotin)
T1 peptide: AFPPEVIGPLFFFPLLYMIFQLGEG

T2: wild-type human sodium taurocholate cotransporting polypeptide (human NTCP) (human, UniProt Q14973 1-349)
T2 sequence: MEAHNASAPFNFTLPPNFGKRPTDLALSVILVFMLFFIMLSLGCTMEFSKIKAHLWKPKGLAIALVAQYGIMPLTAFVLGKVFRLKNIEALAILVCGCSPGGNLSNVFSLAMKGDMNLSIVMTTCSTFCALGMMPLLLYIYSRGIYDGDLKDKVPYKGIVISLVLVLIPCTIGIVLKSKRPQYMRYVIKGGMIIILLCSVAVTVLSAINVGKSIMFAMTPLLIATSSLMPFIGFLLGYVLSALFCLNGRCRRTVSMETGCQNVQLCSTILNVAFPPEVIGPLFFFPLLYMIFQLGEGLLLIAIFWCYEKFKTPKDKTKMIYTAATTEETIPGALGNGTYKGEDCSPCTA

B1: N6HB426-20 antibody (antibody produced by hybridoma) (antibody, V domains shown)
VH: QVQLQQSGAELVKPGASVKLSCKASDFTFTEYTIHWIKQMSGQGLEWIGWFYPGSGDIKYSEKFKDKATLTADKSSSTVYMELNRLTSEDSAVYFCARHMRDFRGFYYGRFYFDYWGQGTTLTVSS
VL: EIVLTQSPAIMSASPGEKVTITCRASSSVSSSYLHWYQQKSGVSPKLWIYSTSNLASGVPARFSGSGSGTSYSLTINSVEAEDAATYYCQQYSGYRWTFGGGTTLEIKRA
notes: Mouse IgG purified from the hybridoma supernatant on Protein G; also called N6HB426-20 monoclonal antibody; N6HB426 antibody
B2: Recombinant N6HB426 human chimeric IgG4 antibody (antibody)
heavy: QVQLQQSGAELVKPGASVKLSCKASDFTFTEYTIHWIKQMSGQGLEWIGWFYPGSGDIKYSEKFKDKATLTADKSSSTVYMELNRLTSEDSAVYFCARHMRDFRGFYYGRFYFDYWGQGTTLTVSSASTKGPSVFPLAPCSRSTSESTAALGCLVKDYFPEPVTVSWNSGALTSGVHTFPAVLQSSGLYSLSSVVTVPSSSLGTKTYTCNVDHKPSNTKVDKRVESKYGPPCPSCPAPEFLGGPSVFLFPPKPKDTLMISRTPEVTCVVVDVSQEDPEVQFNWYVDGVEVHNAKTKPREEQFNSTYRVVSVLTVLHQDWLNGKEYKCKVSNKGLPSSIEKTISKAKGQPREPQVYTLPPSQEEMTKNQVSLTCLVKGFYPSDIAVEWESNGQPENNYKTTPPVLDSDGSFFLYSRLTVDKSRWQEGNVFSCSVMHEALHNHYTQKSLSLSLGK
light: EIVLTQSPAIMSASPGEKVTITCRASSSVSSSYLHWYQQKSGVSPKLWIYSTSNLASGVPARFSGSGSGTSYSLTINSVEAEDAATYYCQQYSGYRWTFGGGTTLEIKRTVAAPSVFIFPPSDEQLKSGTASVVCLLNNFYPREAKVQWKVDNALQSGNSQESVTEQDSKDSTYSLSSTLTLSKADYEKHKVYACEVTHQGLSSPVTKSFNRGEC
notes: also called Recombinant N6HB426 human chimera IgG4 antibody; human chimeric antibody
B3: Recombinant N6HB426 mouse IgG2a antibody (antibody)
heavy: QVQLQQSGAELVKPGASVKLSCKASDFTFTEYTIHWIKQMSGQGLEWIGWFYPGSGDIKYSEKFKDKATLTADKSSSTVYMELNRLTSEDSAVYFCARHMRDFRGFYYGRFYFDYWGQGTTLTVSSAKTTAPSVYPLAPVCGGTTGSSVTLGCLVKGYFPEPVTLTWNSGSLSSGVHTFPALLQSGLYTLSSSVTVTSNTWPSQTITCNVAHPASSTKVDKKIEPRGPTIKPCPPCKCPAPNLLGGPSVFIFPPKIKDVLMISLSPIVTCVVVDVSEDDPDVQISWFVNNVEVHTAQTQTHREDYNSTLRVVSALPIQHQDWMSGKEFKCKVNNKDLPAPIERTISKPKGSVRAPQVYVLPPPEEEMTKKQVTLTCMVTDFMPEDIYVEWTNNGKTELNYKNTEPVLDSDGSYFMYSKLRVEKKNWVERNSYSCSVVHEGLHNHHTTKSFSRTPGK
light: EIVLTQSPAIMSASPGEKVTITCRASSSVSSSYLHWYQQKSGVSPKLWIYSTSNLASGVPARFSGSGSGTSYSLTINSVEAEDAATYYCQQYSGYRWTFGGGTTLEIKRADAAPTVSIFPPSSEQLTSGGASVVCFLNNFYPKDINVKWKIDGSERQNGVLNSWTDQDSKDSTYSMSSTLTLTKDEYERHNSYTCEATHKTSTSPIVKSFNRNEC
notes: this is left out as a signal peptide; also called Recombinant mouse IgG2a antibody; N6HB426-20-IgG2a antibody

How the values were obtained:
[1] = biological target: T1, epitope region-containing peptide …; experiment: SPR (BIAcore 2000, 25 C); antibody captured via anti-mouse IgG on CM5, peptide as analyte; 1:1 Langmuir fit
Protocol: (§1) In short, a carboxymethylated dextran biosensor chip (CM5, BIAcore Inc.) was activated by N-ethyl-N′-(3-dimethylaminopropyl)-carbodiimide hydrochloride (EDC) and N-hydroxysuccinimide (NHS) in accordance with the provider's instruction. An anti-mouse IgG antibody was diluted with 10 mM sodium acetate (pH5.2) up to 30 μg/ml. The dilution was injected at a flow rate of 5 to 10 μl/minute such that the reaction unit (RU) of the protein bound became 9,000 to 14,000 RU. […] The diluted antibody was injected at a flow rate of 5 to 10 μl/minute such that the reaction unit (RU) of the protein bound became 9,000 to 14,000 RU. After injection of each of the anti IgG antibodies, 1 M ethanolamine was injected in order to block unreactive groups. […] To the chip, a solution of an epitope region-containing peptide fragment diluted with the running buffers at different concentrations was added at 25° C. at a flow rate of 10 μl/minute for 2 minutes.
(§2) Using simple one-to-one Langmuir binding model (BIAcore Evaluation software version 3.1) by fitting sensor grams of antigen-antibody association and dissociation at the same time, association rate (Ka) and dissociation rate (Kd) were calculated. A Kd/Ka ratio was calculated to obtain an equilibrium dissociation constant (KD).

[2] = biological target: T2, wild-type human sodium taurocholate …; experiment: cell-based or functional assay
[3] = biological target: T1, epitope region-containing peptide …; experiment: SPR (BIAcore 2000, 25 C); antibody captured via anti-human IgG on CM5, peptide as analyte; 1:1 Langmuir fit
Protocol: as §1, §2

Binder | Kd [1] [nM] | koff [1] [s⁻¹] | kon [1] [M⁻¹ s⁻¹] | IC50, inhibition of HBV/NL pseudo-virus infection of HepG2-human NTCP cells [2] [µg/mL] | IC50, inhibition of infection with pseudo-HBV (NanoLuc) [2] | IC50, inhibition of live HBV infection of HepG2/NTCP-myc (HBs antigen level) [2] [nM] | Kd [3] [nM] | koff [3] [s⁻¹] | kon [3] [M⁻¹ s⁻¹]
B1 | 0.0388 | 3.19e-08 | 821 | 1.7 | 0.27 µg/mL and 1.8 nM | 20 to 30 | – | – | –
B2 | – | – | – | 1.7 | – | – | 0.129 | 1.73e-07 | 1340
B3 | 0.313 | 2.39e-07 | 762 | – | – | – | – | – | –

— patent US20240092924A1 (RIKEN, published 2024)
